Results as given in patent US12072338B2, “Pharmaceutical peptides for the treatment of inflammatory diseases” (PROTAGONISTS LTD., priority 2007, dated 2024).

How the values were obtained:
I-309 = target: T1, I-309 (Homo sapiens, UniProt P22362); assay: Micro-array analysis of chemokine binding peptides: I-309; details: limit = start of the upper 75% of that peptide's response range
T1 construct: purchased 300-37
T1 sequence (P22362 24-96): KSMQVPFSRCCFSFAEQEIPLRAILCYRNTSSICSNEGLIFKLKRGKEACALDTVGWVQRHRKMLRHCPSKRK
Experimental: (§1) (1) Printing: Chemokine (CK) solution (in water) was serially diluted with Print Reagent (GenTel BioSurfaces USA) to final concentrations of 50 μg and 25 μg/ml. BSA/BSA-Biotin control solutions (in water) were diluted with Print Reagent to 100 μg/ml. Amplified stock of M13 phage control (M13KEgIII Cloning Vector, New England Biolabs, Cat.No.E8101S) was stored in Tris Buffered Saline (TBS; pH7.5, 4° C.) and diluted with Print Reagent to the working titre (10^8 pfu/μl). An automated spotting robot (16 pin print tool, 0.4 mm head; BioRobotics, UK) was used to print the CK/BSA control/M13 control, 5 repeats per sample (CK 25 μg/ml and 50 μg/ml; BSA 100 μg/ml; M13 20 μl), on PATH Protein Microarray Slides (GenTel, Prod.No. 2-1005/-1025) at […], and 50-70% relative humidity. Printed micro-array slides were stored at Room Temperature (RT) or 4° C. for at least 24 h before use.
(§2) (2) Blocking: Block Buffer (500 μl/partition; PATHblock, GenTel, Prod.No. 2-1014) was applied to the slide for 1 hour at room temp (RT). After removal of Block Buffer, the slide was air dried for 25 minutes;
(§3) (3) Phage Presented Peptide Binding: Amplified recombinant phage stock was stored in TBS and diluted with Wash Buffer to working titer (10^7 pfu/μl). Recombinant phage suspension (300 μl) was applied per partition and incubated at RT for 1 hour with gentle agitation.
(§4) (4) First Washing: The slides were washed twice with Wash Buffer 300 μl/partition).
(§5) (5) Primary Antibody (Ab) Labeling: The slides were incubated with the Primary Ab (1 mg/ml diluted ×2500 (Wash Reagent), 300 μl; Mouse Anti-M13 monoclonal Ab; Amersham Biosciences, UK; Product Code 27-9420-01) for 45 minutes at RT.
(§6) (6) Second Washing: The slides were washed twice with Wash Buffer (300 μl/partition).
(§7) (7) Secondary Ab Labeling: The slides were incubated with Secondary Ab (1.5 mg/ml diluted ×5000 (Wash Reagent), 300 μl; Cy3-conjugated AffiniPure Goat Anti-Mouse IgG; Jackson ImmunoReserch Labs, USA; Product Code 115-165-062).
(§8) (8) Third Washing: The slides were washed twice with Wash Buffer (300 μl/partition).
(§9) (9) Rinse: the slides were rinsed twice with Rinse Buffer (PATHrinse, GenTel, Prod.No. 2-1018) then dried well.
(§10) (10) Scanning: The peptide-bound, labeled slide was scanned (Laser Intensity 80%, Gain 80%, Resolution 10 μm) with a ScanArray Life Scanner (Packard BioChip Technologies, USA).
(§11) (11) Analysis: Quantitative analysis of micro-array was performed by the SpotReader program of Niles Scientific (USA) and presented as Relative Fluorescence (RF) as a function of CK concentration. Micro-array readout (Cy3 fluorescence) was quantified to determine the relative binding affinities of a CBP for the CKs and by inference, the specificity of the CBP for binding to a CK.

MCP-4 = target: T2, MCP-4 (Homo sapiens, UniProt Q99616); assay: Micro-array analysis of chemokine binding peptides: MCP-4
T2 construct: purchased 300-24
Experimental: as §1, §2, §3, §4, §5, §6, §7, §8, §9, §10, §11

Eotaxin = target: T3, Eotaxin (Homo sapiens, UniProt P51671); assay: Micro-array analysis of chemokine binding peptides: Eotaxin
T3 construct: purchased 300-21
Experimental: as §1, §2, §3, §4, §5, §6, §7, §8, §9, §10, §11

I-TAC = target: T4, I-TAC (Homo sapiens, UniProt O14625); assay: Micro-array analysis of chemokine binding peptides: I-TAC; details: for binding to I-TAC with relatively high affinity (Relative Fluorescence Units): limit = start of the upper 75% of that peptide's response range
T4 construct: purchased 300-46
T4 sequence (O14625 22-94): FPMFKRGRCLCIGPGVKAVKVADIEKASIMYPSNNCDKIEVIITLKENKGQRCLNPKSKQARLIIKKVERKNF
Experimental: as §1, §2, §3, §4, §5, §6, §7, §8, §9, §10, §11

TECK = target: T5, TECK (Homo sapiens, UniProt O15444); assay: Micro-array analysis of chemokine binding peptides: TECK
T5 construct: purchased 300-45
T5 sequence (O15444 24-150): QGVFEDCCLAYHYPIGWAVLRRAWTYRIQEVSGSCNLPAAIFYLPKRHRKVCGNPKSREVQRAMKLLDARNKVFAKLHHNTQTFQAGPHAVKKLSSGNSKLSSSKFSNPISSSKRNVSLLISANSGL
Experimental: as §1, §2, §3, §4, §5, §6, §7, §8, §9, §10, §11

Mig = target: T6, Mig (Homo sapiens, UniProt Q07325); assay: Micro-array analysis of chemokine binding peptides: Mig; details: for binding to Mig with relatively high affinity (Relative Fluorescence Units): limit = start of the upper 75% of that peptide's response range
T6 construct: purchased 300-26
T6 sequence (Q07325 23-125): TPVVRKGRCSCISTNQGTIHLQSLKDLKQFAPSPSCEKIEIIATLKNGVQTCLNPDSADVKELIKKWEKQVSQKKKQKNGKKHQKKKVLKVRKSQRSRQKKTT
Experimental: as §1, §2, §3, §4, §5, §6, §7, §8, §9, §10, §11

Exodus-2 = target: T7, Exodus-2 (Homo sapiens, UniProt O00585); assay: Micro-array analysis of chemokine binding peptides: Exodus-2
T7 construct: purchased 300-35
T7 sequence (O00585 24-134): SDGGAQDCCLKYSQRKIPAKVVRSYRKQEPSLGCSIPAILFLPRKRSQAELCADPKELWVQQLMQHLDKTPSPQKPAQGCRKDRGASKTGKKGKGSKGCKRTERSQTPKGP
Experimental: as §1, §2, §3, §4, §5, §6, §7, §8, §9, §10, §11

MCP-2 = target: T8, MCP-2 (Homo sapiens, UniProt P80075); assay: Micro-array analysis of chemokine binding peptides: MCP-2
T8 construct: purchased 300-15
T8 sequence (P80075 24-99): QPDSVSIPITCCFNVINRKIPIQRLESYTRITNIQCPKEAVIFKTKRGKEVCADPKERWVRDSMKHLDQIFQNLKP
Experimental: as §1, §2, §3, §4, §5, §6, §7, §8, §9, §10, §11

MCP-1 = target: T9, MCP-1 (Homo sapiens, UniProt P13500); assay: Micro-array analysis of chemokine binding peptides: MCP-1
T9 construct: purchased 300-04
Experimental: as §1, §2, §3, §4, §5, §6, §7, §8, §9, §10, §11

Eotaxin 3 = target: T10, Eotaxin 3 (Homo sapiens, UniProt Q9Y258); assay: Micro-array analysis of chemokine binding peptides: Eotaxin 3
T10 construct: purchased 300-48
T10 sequence (Q9Y258 24-94): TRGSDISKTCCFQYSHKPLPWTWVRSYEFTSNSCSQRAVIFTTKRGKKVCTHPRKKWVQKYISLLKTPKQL
Experimental: as §1, §2, §3, §4, §5, §6, §7, §8, §9, §10, §11

SDF1-β = target: T11, SDF1-β (Homo sapiens, UniProt P48061); assay: Micro-array analysis of chemokine binding peptides: SDF1-β
T11 construct: purchased 300-28b
Experimental: as §1, §2, §3, §4, §5, §6, §7, §8, §9, §10, §11

IL-8 = assay: Micro-array analysis of chemokine binding peptides: IL-8
Experimental: as §1, §2, §3, §4, §5, §6, §7, §8, §9, §10, §11

BCA-1 = target: T12, BCA-1 (Homo sapiens, UniProt O43927); assay: Micro-array analysis of chemokine binding peptides: BCA-1
T12 construct: purchased 300-47
T12 sequence (O43927 23-109): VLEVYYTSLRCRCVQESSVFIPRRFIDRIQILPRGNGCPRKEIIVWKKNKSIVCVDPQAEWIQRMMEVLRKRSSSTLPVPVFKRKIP
Experimental: as §1, §2, §3, §4, §5, §6, §7, §8, §9, §10, §11

Lymphotactin = target: T13, Lymphotactin (Homo sapiens, UniProt P47992); assay: Micro-array analysis of chemokine binding peptides: Lymphotactin
T13 construct: purchased 300-20
T13 sequence (P47992 22-114): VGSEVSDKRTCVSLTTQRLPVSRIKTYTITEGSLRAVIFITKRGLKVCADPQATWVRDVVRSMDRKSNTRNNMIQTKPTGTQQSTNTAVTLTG
Experimental: as §1, §2, §3, §4, §5, §6, §7, §8, §9, §10, §11

Eotaxin 2 = target: T14, Eotaxin 2 (Homo sapiens, UniProt O00175); assay: Micro-array analysis of chemokine binding peptides: Eotaxin 2
T14 construct: purchased 300-33
T14 sequence (O00175 27-119): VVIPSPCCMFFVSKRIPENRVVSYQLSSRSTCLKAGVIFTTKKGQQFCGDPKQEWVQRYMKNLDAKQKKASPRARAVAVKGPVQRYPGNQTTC
Experimental: as §1, §2, §3, §4, §5, §6, §7, §8, §9, §10, §11

Fractalkine = target: T15, Fractalkine (Homo sapiens, UniProt P78423); assay: Micro-array analysis of chemokine binding peptides: Fractalkine
T15 construct: purchased 300-31
T15 sequence (P78423 25-100 limits assumed): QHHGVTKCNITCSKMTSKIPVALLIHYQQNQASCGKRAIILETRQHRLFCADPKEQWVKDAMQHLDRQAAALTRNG
Experimental: as §1, §2, §3, §4, §5, §6, §7, §8, §9, §10, §11

SDF1-α = target: T16, SDF1-α (Homo sapiens, UniProt P48061); assay: Micro-array analysis of chemokine binding peptides: SDF1-α
T16 construct: purchased 300-28a
Experimental: as §1, §2, §3, §4, §5, §6, §7, §8, §9, §10, §11

RANTES = target: T17, RANTES (Homo sapiens, UniProt P13501); assay: Micro-array analysis of chemokine binding peptides: RANTES
T17 construct: purchased 300-06
T17 sequence (P13501 24-91): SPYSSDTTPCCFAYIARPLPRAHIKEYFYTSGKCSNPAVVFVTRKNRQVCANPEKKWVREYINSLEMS
Experimental: as §1, §2, §3, §4, §5, §6, §7, §8, §9, §10, §11

GRO-β = target: T18, GRO-β (Homo sapiens, UniProt P19875); assay: Micro-array analysis of chemokine binding peptides: GRO-β
T18 construct: purchased 300-39
T18 sequence (P19875 35-107): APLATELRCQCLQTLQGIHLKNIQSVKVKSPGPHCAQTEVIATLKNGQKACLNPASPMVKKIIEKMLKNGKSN
Experimental: as §1, §2, §3, §4, §5, §6, §7, §8, §9, §10, §11

[1] = limit = start of the upper 75% of that peptide's response range

Sequence of IL-8 (P10145 28-99 limits assumed): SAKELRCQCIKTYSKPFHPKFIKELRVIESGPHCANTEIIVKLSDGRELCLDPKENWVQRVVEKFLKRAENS
T2 sequence (Q99616 17-98): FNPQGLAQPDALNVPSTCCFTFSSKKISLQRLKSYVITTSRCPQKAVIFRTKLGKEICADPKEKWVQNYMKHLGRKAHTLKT
T9 sequence (P13500 24-99): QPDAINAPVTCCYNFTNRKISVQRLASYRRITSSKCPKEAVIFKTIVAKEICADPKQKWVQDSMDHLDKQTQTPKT
T11 sequence (P48061 22-93): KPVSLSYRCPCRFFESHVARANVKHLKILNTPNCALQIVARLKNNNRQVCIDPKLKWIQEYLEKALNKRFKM
T16 sequence (P48061 22-89 limits assumed): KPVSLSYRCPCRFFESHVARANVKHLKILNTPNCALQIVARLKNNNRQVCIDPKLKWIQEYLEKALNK

Row | binding to I-TAC with relatively high affinity (Relative Fluorescence Units) (I-TAC) | binding to TECK, stated in words (TECK) | binding to Mig with relatively high affinity (Relative Fluorescence Units) (Mig) | binding to BCA-1, stated in words (BCA-1) | binding to Lymphotactin, stated in words (Lymphotactin) | binding to MCP-4, stated in words (MCP-4) | binding to Eotaxin, stated in words (Eotaxin) | binding to GRO-β, stated in words (GRO-β) | binding to MCP-1, stated in words (MCP-1) | binding to Eotaxin 3, stated in words (Eotaxin 3) | binding to IL-8, stated in words (IL-8) | Substance | further results
1 | > 15,000 RFU | bound | > 15,000 RFU | bound | bound | – | – | – | – | – | – | DYDYG (listed as Homo sapiens) [Ph-p31] | binding to I-309 with relatively high affinity (Relative Fluorescence Units) (I-309): > 15,000 RFU; binding to MCP-4 with relatively high affinity (Relative Fluorescence Units) (MCP-4; [1]): > 15,000 RFU; binding to Eotaxin with relatively high affinity (Relative Fluorescence Units) (Eotaxin; [1]): > 15,000 RFU; binding to Exodus-2, stated in words (Exodus-2): bound; binding to MCP-2 with relatively high affinity (Relative Fluorescence Units) (MCP-2; [1]): > 15,000 RFU; binding to MCP-1 with relatively high affinity (Relative Fluorescence Units) (MCP-1; [1]): > 15,000 RFU; binding to Eotaxin 3 with relatively high affinity (Relative Fluorescence Units) (Eotaxin 3; [1]): > 15,000 RFU; binding to SDF1-β, stated in words (SDF1-β): bound; binding to IL-8 with relatively high affinity (Relative Fluorescence Units) (IL-8; [1]): > 15,000 RFU; binding to Eotaxin 2 with relatively high affinity (Relative Fluorescence Units) (Eotaxin 2; [1]): > 15,000 RFU; binding to Fractalkine, stated in words (Fractalkine): bound; binding to SDF1-α, stated in words (SDF1-α): bound; binding to RANTES with relatively high affinity (Relative Fluorescence Units) (RANTES; [1]): > 15,000 RFU
2 | – | bound | – | – | bound | bound | bound | bound | bound | bound | bound | HYTCSSHFP [Ph-p17] | binding to I-TAC, stated in words (I-TAC): bound; binding to Mig, stated in words (Mig): bound
3 | > 9,000 RFU | bound | > 9,000 RFU | bound | bound | bound | bound | bound | bound | bound | bound | DRYLNIVHAT [Ph-p18] | binding to MCP-2, stated in words (MCP-2): bound; binding to Eotaxin 2, stated in words (Eotaxin 2): bound; binding to RANTES, stated in words (RANTES): bound
